± gives the uncertainty stated by the source.
Assay: self-splicing fitness, log relative to wild type (ln ratio); higher = more splicing; Tetrahymena group I intron in knt gene, E. coli kanamycin selection, DiMSum; sequences stand for … in CUCUCU…GGAGGGAAAAGUUAUCAGGCAUGCACCUGGUAGCUAGUCUUUAAACCAAUAGAUUGCAUCGGUUUAAAAGGCAAGACCGUCAAAUUGCGGGAAAGGGGUCAACAGCCGUUCAGUACCAAGUCUCAGGGGAAACUUUGAGAUGGCCUUGCAAAGGGUAUGGUAAUAAGCUGACGGACAUGGUCCUAACCACGCAGCCAAGUCCUAAGUCAACAGAUCUUCUGUUGAUAUGGAUGCAGUUCACAGACUAAAUGUCGGUCGGGGAAGAUGUAUUCUUCUCAUAAGAUAUAGUCGGACCUCUCCUUAAUGGGAGCUAGCGGAUGAAGUGAUGCAACACUGGAGCCGCUGGGAACUAAUUUGUAUGCGAAAGUAUAUUGAUUAGUUUUGGAGUACUCGUGGUCG
In short: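 Colonies from six replicate transformations of E. coli BL21(DE3) were pooled and amplicon-sequenced on an Illumina HiSeq 2500. The library placed an intron with all eight P1ex-region nucleotides randomised inside the knt kanamycin-resistance gene on pET-22b(+), and cells grew overnight at 37°C or 30°C on LB agar with or without 25 μg/mL kanamycin (plus 100 μg/mL carbenicillin, 50 μM IPTG, 0.2% rhamnose). Fitness is the DiMSum error-weighted combination of wild-type-normalised replicate fold changes, kanamycin versus none.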

| Sequence | self-splicing fitness (ln) (30 °C) | self-splicing fitness (ln) (37 °C) |
| --- | --- | --- |
| ACCGAGCAAUAUUACGCAGU | -3.67 ± 0.16 | -2.48 ± 0.16 |
| ACCGAGCAAUAUUACGCAUA | -2.42 ± 0.21 | -2.57 ± 0.2 |
| ACCGAGCAAUAUUACGCGCA | -2.06 ± 0.1 | -0.82 ± 0.078 |
| ACCGAGCAAUAUUACGCGUC | -3.17 ± 0.15 | -2.18 ± 0.22 |
| ACCGAGCAAUAUUACGCUAU | -2.77 ± 0.14 | -2.26 ± 0.14 |
| ACCGAGCAAUAUUACGCUCC | -2.85 ± 0.39 | -1.79 ± 0.44 |
| ACCGAGCAAUAUUACGGCAU | -1.09 ± 0.09 | -0.529 ± 0.11 |
| ACCGAGCAAUAUUACGGCCG | -2.57 ± 0.09 | -1.09 ± 0.1 |
| ACCGAGCAAUAUUACGGUAA | -2.6 ± 0.18 | -1.7 ± 0.12 |
| ACCGAGCAAUAUUACGGUGA | -3.07 ± 0.18 | -1.48 ± 0.13 |
| ACCGAGCAAUAUUACGGUUG | -3.88 ± 0.21 | -2.51 ± 0.16 |
| ACCGAGCAAUAUUACGUCCG | -4.36 ± 0.24 | -1.5 ± 0.14 |
| ACCGAGCAAUAUUACGUGUG | -2.5 ± 0.08 | -1.79 ± 0.079 |
| ACCGAGCAAUAUUACGUUCA | -1.34 ± 0.13 | -0.705 ± 0.1 |
| ACCGAGCAAUAUUACGUUUC | -4.37 ± 0.29 | -2.94 ± 0.32 |
| ACCUAGCAAUAUUACGAAUA | -2.75 ± 0.15 | -2.94 ± 0.18 |
| ACCUAGCAAUAUUACGACAC | -0.951 ± 0.1 | -0.536 ± 0.17 |
| ACCUAGCAAUAUUACGACCG | -1.16 ± 0.13 | 0.144 ± 0.12 |
| ACCUAGCAAUAUUACGAGGA | -2.16 ± 0.12 | -0.9 ± 0.12 |
| ACCUAGCAAUAUUACGAGUA | -2.47 ± 0.14 | -1.16 ± 0.12 |
| ACCUAGCAAUAUUACGAGUC | -2.53 ± 0.3 | -2.78 ± 0.48 |
| ACCUAGCAAUAUUACGAUAU | -1.58 ± 0.092 | -0.443 ± 0.12 |
| ACCUAGCAAUAUUACGAUGC | -1.22 ± 0.078 | -0.172 ± 0.081 |
| ACCUAGCAAUAUUACGCACU | -0.127 ± 0.085 | 0.3 ± 0.12 |

| Sequence | self-splicing fitness (ln) (30 °C) | self-splicing fitness (ln) (37 °C) |
| --- | --- | --- |
| ACCUAGCAAUAUUACGCAGU | -2.58 ± 0.17 | -1.53 ± 0.19 |
| ACCUAGCAAUAUUACGCAUA | -2 ± 0.2 | -1.85 ± 0.16 |
| ACCUAGCAAUAUUACGCGCA | -0.569 ± 0.08 | -0.709 ± 0.087 |
| ACCUAGCAAUAUUACGCGCC | -0.396 ± 0.09 | -0.477 ± 0.12 |
| ACCUAGCAAUAUUACGCGCG | -0.971 ± 0.13 | 0.377 ± 0.13 |
| ACCUAGCAAUAUUACGCGGC | -3.53 ± 0.33 | -1.38 ± 0.17 |
| ACCUAGCAAUAUUACGCGGU | -4.32 ± 0.46 | -2.48 ± 0.31 |
| ACCUAGCAAUAUUACGCGUC | -2.91 ± 0.27 | -0.412 ± 0.14 |
| ACCUAGCAAUAUUACGCUAC | -2.93 ± 0.13 | -2.02 ± 0.15 |
| ACCUAGCAAUAUUACGCUCA | -1.71 ± 0.14 | -0.169 ± 0.17 |
| ACCUAGCAAUAUUACGCUGC | -2.42 ± 0.12 | -1.06 ± 0.13 |
| ACCUAGCAAUAUUACGCUUU | -1.26 ± 0.055 | -0.293 ± 0.081 |
| ACCUAGCAAUAUUACGGGAU | -2.07 ± 0.1 | -0.904 ± 0.1 |
| ACCUAGCAAUAUUACGGUCG | -3.53 ± 0.17 | -2.11 ± 0.14 |
| ACCUAGCAAUAUUACGUAAA | -2.13 ± 0.096 | -1.47 ± 0.12 |
| ACCUAGCAAUAUUACGUGAA | -2.1 ± 0.097 | -1.18 ± 0.12 |
| ACCUAGCAAUAUUACGUGCA | -2.89 ± 0.12 | -1.25 ± 0.1 |
| ACGAAGCAAUAUUACGACAA | -0.701 ± 0.2 | -0.985 ± 0.19 |
| ACGAAGCAAUAUUACGAGCG | -0.87 ± 0.075 | -0.411 ± 0.12 |
| ACGAAGCAAUAUUACGAGUA | -3.49 ± 0.21 | -2.73 ± 0.17 |
| ACGAAGCAAUAUUACGAUAA | -1.62 ± 0.15 | -1.39 ± 0.14 |
| ACGAAGCAAUAUUACGAUCA | -1.08 ± 0.12 | -0.536 ± 0.12 |
| ACGAAGCAAUAUUACGAUUA | -1.36 ± 0.077 | -0.917 ± 0.072 |
| ACGAAGCAAUAUUACGCACG | -3.26 ± 0.18 | -2.22 ± 0.17 |

| Sequence | self-splicing fitness (ln) (30 °C) | self-splicing fitness (ln) (37 °C) |
| --- | --- | --- |
| ACGAAGCAAUAUUACGCCAU | -4.46 ± 0.39 | -3.02 ± 0.26 |
| ACGAAGCAAUAUUACGCGCA | -0.419 ± 0.068 | 0.542 ± 0.1 |
| ACGAAGCAAUAUUACGGCAU | -0.981 ± 0.1 | 0.219 ± 0.11 |
| ACGAAGCAAUAUUACGGCUG | -0.78 ± 0.052 | -0.0127 ± 0.084 |
| ACGAAGCAAUAUUACGGGAU | -3.47 ± 0.13 | -1.8 ± 0.14 |
| ACGAAGCAAUAUUACGGGGU | -3.47 ± 0.15 | -2.33 ± 0.17 |
| ACGAAGCAAUAUUACGUAAG | -2.37 ± 0.1 | -1.05 ± 0.12 |
| ACGAAGCAAUAUUACGUAAU | -2.57 ± 0.087 | -1.23 ± 0.088 |
| ACGAAGCAAUAUUACGUCAA | -3.35 ± 0.17 | -3.51 ± 0.22 |
| ACGAAGCAAUAUUACGUCAG | -3.43 ± 0.19 | -1.1 ± 0.12 |
| ACGAAGCAAUAUUACGUCUU | -2.32 ± 0.17 | -1.91 ± 0.16 |
| ACGAAGCAAUAUUACGUGCC | -1.6 ± 0.079 | -0.89 ± 0.1 |
| ACGCAGCAAUAUUACGAACG | -0.387 ± 0.076 | -0.234 ± 0.091 |
| ACGCAGCAAUAUUACGAAUG | -2.51 ± 0.086 | -1.2 ± 0.097 |
| ACGCAGCAAUAUUACGACAU | -0.318 ± 0.011 | 0.305 ± 0.032 |
| ACGCAGCAAUAUUACGACUA | -1.15 ± 0.072 | -0.183 ± 0.064 |
| ACGCAGCAAUAUUACGAUGA | -1.1 ± 0.064 | -0.521 ± 0.068 |
| ACGCAGCAAUAUUACGCAAA | -2.51 ± 0.13 | -1.77 ± 0.14 |
| ACGCAGCAAUAUUACGCACG | -1.8 ± 0.12 | -1.31 ± 0.12 |
| ACGCAGCAAUAUUACGCCAU | -2.86 ± 0.17 | -2.05 ± 0.17 |
| ACGCAGCAAUAUUACGCCCU | -0.193 ± 0.12 | 0.187 ± 0.12 |
| ACGCAGCAAUAUUACGCGCU | -2.24 ± 0.17 | -1.31 ± 0.14 |
| ACGCAGCAAUAUUACGCUCU | -0.517 ± 0.067 | 0.303 ± 0.076 |
| ACGCAGCAAUAUUACGCUUA | -0.737 ± 0.089 | -0.286 ± 0.099 |

| Sequence | self-splicing fitness (ln) (30 °C) | self-splicing fitness (ln) (37 °C) |
| --- | --- | --- |
| ACGCAGCAAUAUUACGGAUA | -3.47 ± 0.18 | -1.7 ± 0.12 |
| ACGCAGCAAUAUUACGGCAG | -1.22 ± 0.093 | -1.08 ± 0.15 |
| ACGCAGCAAUAUUACGGCAU | -0.55 ± 0.059 | 0.0845 ± 0.072 |
| ACGCAGCAAUAUUACGGUCC | -2.36 ± 0.14 | -1.01 ± 0.13 |
| ACGCAGCAAUAUUACGGUGU | -3.81 ± 0.14 | -2.29 ± 0.096 |
| ACGCAGCAAUAUUACGGUUA | -1.13 ± 0.077 | -1.04 ± 0.062 |
| ACGCAGCAAUAUUACGUAUA | -2.65 ± 0.14 | -2.54 ± 0.13 |
| ACGCAGCAAUAUUACGUUAA | -3.4 ± 0.31 | -2.88 ± 0.24 |
| ACGCAGCAAUAUUACGUUAC | -3.14 ± 0.15 | -3.27 ± 0.23 |
| ACGCAGCAAUAUUACGUUCG | -1.24 ± 0.059 | -0.442 ± 0.068 |
| ACGCAGCAAUAUUACGUUUG | -3.65 ± 0.2 | -2.69 ± 0.2 |
| ACGGAGCAAUAUUACGAACU | -0.565 ± 0.11 | -0.0683 ± 0.16 |
| ACGGAGCAAUAUUACGACAA |  | -1.73 ± 0.45 |
| ACGGAGCAAUAUUACGACAU | -1.947 ± 0.018 | -1.1 ± 0.035 |
| ACGGAGCAAUAUUACGACCG | -2.1 ± 0.17 | -1.78 ± 0.25 |
| ACGGAGCAAUAUUACGAGAU | -3.66 ± 0.21 | 0.0618 ± 0.16 |
| ACGGAGCAAUAUUACGAGGA | -2.89 ± 0.27 | -2.92 ± 0.43 |
| ACGGAGCAAUAUUACGAGGG | -3.45 ± 0.25 | -2.82 ± 0.32 |
| ACGGAGCAAUAUUACGAGGU | -2.12 ± 0.22 | -2.5 ± 0.29 |
| ACGGAGCAAUAUUACGAUGU | -3.19 ± 0.2 | -2.52 ± 0.27 |
| ACGGAGCAAUAUUACGAUUU | -2.33 ± 0.12 | -1.65 ± 0.15 |
| ACGGAGCAAUAUUACGCAGA | -2.52 ± 0.36 | -2.02 ± 0.29 |
| ACGGAGCAAUAUUACGCCAU | -2.63 ± 0.25 |  |

Source: the supplement of paper PMC7877785
